In US20230093512A1:
Where two headings read alike, the source gives them in different places.

How the values were obtained:
[1] = target: human PD-L1 (PD-L1 aAPC/CHO-K1 cells) (human) (UniProt Q9NZQ7)
[2] = target: human PD-L1 (PD-L1 aAPC/CHO-K1 cells) (human) (UniProt Q9NZQ7); remark: listed apart in the source
TGF-β1 [3] = assay: ELISA: TGF-β1 coated on the plate, HRP-conjugated 2nd antibody, OD450
TGF-β2 [4] = assay: ELISA: TGF-β2 coated on the plate, HRP-conjugated 2nd antibody, OD450
TGF-β3 [5] = assay: ELISA: TGF-β3 coated on the plate, HRP-conjugated 2nd antibody, OD450
TGF-β1 [6] = assay: ELISA: TGF-β1 coated on the plate, HRP-conjugated 2nd antibody, OD450; remark: listed apart in the source
TGF-β2 [7] = assay: ELISA: TGF-β2 coated on the plate, HRP-conjugated 2nd antibody, OD450; remark: listed apart in the source
TGF-β3 [8] = assay: ELISA: TGF-β3 coated on the plate, HRP-conjugated 2nd antibody, OD450; remark: listed apart in the source
TGF-β1 [9] = assay: SPR, TGFβ ligand amine-coupled to chip, fusion protein as analyte, 25 °C, HBS-EP
TGF-β2 [10] = assay: as above
TGF-β3 [11] = assay: as above
[12] = target: PD-L1 that is over expressed on CHO-K1 cells (Homo sapiens (Human)) (UniProt Q9NZQ7); assay: flow cytometry (FACS) on CHO-K1 cells over expressing PD-L1, geometric mean
Chain of PD-L1 that is over expressed on CHO-K1 cells (Homo sapiens (Human)) (Q9NZQ7 19-290 limits assumed): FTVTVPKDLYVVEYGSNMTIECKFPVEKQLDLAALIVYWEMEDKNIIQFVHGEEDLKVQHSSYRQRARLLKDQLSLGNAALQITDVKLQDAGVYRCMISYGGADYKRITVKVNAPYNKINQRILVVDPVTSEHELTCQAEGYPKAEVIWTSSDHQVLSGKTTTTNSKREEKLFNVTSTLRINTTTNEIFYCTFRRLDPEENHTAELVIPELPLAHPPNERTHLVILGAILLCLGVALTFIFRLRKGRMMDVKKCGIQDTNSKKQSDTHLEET

Chain of TGF-β1 (P01137 279-390): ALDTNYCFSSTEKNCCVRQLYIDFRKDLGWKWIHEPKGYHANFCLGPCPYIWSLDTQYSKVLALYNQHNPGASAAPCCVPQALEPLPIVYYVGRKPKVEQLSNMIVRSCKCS
Chain of TGF-β2 (P61812 303-414): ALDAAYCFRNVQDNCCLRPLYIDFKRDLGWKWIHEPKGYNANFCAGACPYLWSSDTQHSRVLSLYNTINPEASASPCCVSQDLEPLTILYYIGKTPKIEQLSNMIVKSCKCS
Chain of human PD-L1 (PD-L1 aAPC/CHO-K1 cells) (human) (Q9NZQ7 19-290): as the sequence (Q9NZQ7 19-290 limits assumed) above
Chain of TGF-β3 (P10600 301-412): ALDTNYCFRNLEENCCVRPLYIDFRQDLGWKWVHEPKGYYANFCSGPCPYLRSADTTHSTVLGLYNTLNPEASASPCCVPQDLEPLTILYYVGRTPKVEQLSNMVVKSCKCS

Substance	EC50, luminescence (RLU) of PD-1 effector cells co-cultured with PD-L1 aAPC/CHO-K1 cells, PD-1/PD-L1 blockade bioassay [1]	EC50, luminescence (RLU) of PD-1 effector cells co-cultured with PD-L1 aAPC/CHO-K1 cells, PD-1/PD-L1 blockade bioassay [2]	EC50 (TGF-β1 [3])	EC50 (TGF-β2 [4])	EC50 (TGF-β3 [5])	EC50 (TGF-β1 [6])	EC50 (TGF-β2 [7])	EC50 (TGF-β3 [8])	Kd (TGF-β1 [9])	koff (TGF-β1 [9])	kon (TGF-β1 [9])	Kd (TGF-β2 [10])	koff (TGF-β2 [10])	kon (TGF-β2 [10])	Kd (TGF-β3 [11])	koff (TGF-β3 [11])	kon (TGF-β3 [11])	EC50 [12]
M7824	852 pM	770 pM	0.255 µg/mL	0.432 µg/mL	0.307 µg/mL	0.327 µg/mL	0.348 µg/mL	0.278 µg/mL	943 pM	0.000315 s⁻¹	334000 M⁻¹ s⁻¹	4600 pM	0.00132 s⁻¹	286000 M⁻¹ s⁻¹	1020 pM	0.00032 s⁻¹	314000 M⁻¹ s⁻¹	344 pM
Tecentriq (antibody)	398 pM																	
